Reference: the supplement of paper PMC10567573

B1: MCOLN1 (parent)
chain: EEEDLRRRLKYFFMSPCDKFRAKG
B2: SEC22B (parent)
chain: AKQLFRKLNEQSPTRCTLEAGAMT

Variants of: B1
Assay: protein stability index of a GFP-peptide fusion (GPS, HEK-293T) (PSI 1-6); higher = more stable
Conditions: c terminus: a fixed tail appended
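Further: lentivirally expressed fusions sorted by FACS into six bins by GFP to DsRed ratio, PSI derived from sequencing read proportions per bin multiplied by bin number.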

Protein stability index of substitutions, site by site:
D18: W 2.25, R 1.93, Y 2.67, T 1.53
D4: A 1.13, W 1.44, R 2.23, V 1.74, E 2.08
R8: L 2.1, P 3.23, V 2.62, G 2.97
F13: M 2.67, D 3.22, I 3.15
R21: Y 2.54, F 2.4, E 3.45, C 2.65, M 2.72, L 2.19, A 2.52
P16: K 2.61, M 1.78, N 2.11, V 2.12
K19: E 2.94, Y 2.75, G 2.37, D 2.45
R6: G 2.99, S 3.6, V 2.34
K10: T 2.15, A 2.15, Y 1.67, C 2.15, P 2.79, M 1.93
L9: I 1.92, A 3.3
L5: T 3.65, N 3.51, A 2.91, H 3.31
A22: Y 1.88, I 1.91, R 1.95, T 2.19, D 2.64
S15: L 2.05, E 3.26, P 1.65, Y 2.62
M14: E 2.65, N 3.3
F20: P 3.59, I 2.14, Q 3.23, S 3.58
C17: S 2.54, K 2.1, D 3.08, F 2.1
K23: F 1.64, T 2.31, H 1.84, A 2.78, W 1.2, R 2.65, L 1.86
R7: E 3.33, V 2, Y 2.65, I 2.39
G24: V 2.29, S 2.57, E 3.07
E2: T 1.72, M 2.58, P 2.23
Y11: G 3.2, W 1.42, Q 3.25
E1: P 2.14, C 3.42, H 3.05, K 1.76
F12: L 3.73, R 2.91, P 3.56, D 3.61, T 3.62
E3: P 2.25, C 2.65, H 2.33, Y 1.85

Variants of: B2
Assay: as above
Conditions: c terminus: a fixed tail appended

Protein stability index, by site and new letter:
T17: Q 2.4, F 1.6, C 2.4, K 1.94, L 2.13, I 1.86, D 3.48, S 1.81, E 3.23, H 2, M 2.46, N 2.22, W 2.28, A 1.81, P 2.77, R 2.69, Y 1.61, G 1.69, V 2.18
A22: M 2.07, Q 1.88, E 2.53, F 1.49, W 3.6, P 2.25, R 2.14, C 2.07, K 1.79, S 2.27, G 2.35, L 1.58, N 2.8, Y 2.41, H 1.82, D 2.33, I 2.17, V 1.89, T 1.84
M23: I 2.04, F 1.72, Q 2.81, S 2.7, V 1.81, A 2.09, E 2.59, W 2.19, L 2.47, R 2.26, C 2.18, G 2.85, H 2.25, K 2.45, Y 2.37, N 2.61, D 2.77, T 2.22, P 2.7
C16: E 3.85, A 3.07, G 3.93, F 2.15, L 3.19, R 3.27, N 3.74, T 3.64, W 2.52, Q 3.47, D 3.93, I 3.12, M 3.08, V 2.53, P 3.96, H 3.47, S 3.66, K 2.95, Y 2.79
L18: W 1.94, I 2.35, F 2.09, V 2.78, M 2.16, E 3.47, T 2.84, H 2.64, R 2.46, K 2.7, S 3.26, C 2.66, G 2.48, A 3.25, Y 1.89, Q 2.71, P 3.24, N 3.17, D 3.92
P13: C 1.53, A 2.48, L 2.08, I 1.61, S 1.58, Q 1.98, F 1.77, V 2.46, H 1.7, R 2.73, N 1.86, M 1.82, G 1.96, D 3.06, K 1.88, T 2.14, E 2.81, Y 1
G21: C 2.58, M 1.34, L 2.12, P 2.38, V 4.07, F 2.42, H 1.94, K 2.11, N 2.18, Y 1.95, I 1.88, T 1.86, W 1.61, E 2.56, S 2.51, R 2.4, D 2.99, Q 1.68, A 1.96
T14: S 1.89, C 3.02, Q 1.86, I 2.55, L 1.94, M 1.79, H 1.81, V 2.06, P 2.35, R 2.38, W 2.01, G 1.74, F 1.63, A 1.68, Y 1.99, K 2.41, E 3.53, N 1.98, D 3.27
A20: P 2.65, L 2.27, D 3.07, R 2.77, K 3.02, E 3.22, N 3.08, T 2.96, M 3.4, Y 2.01, S 2.99, G 3.5, V 2.49, C 1.64, F 1.34, Q 2.87, I 2.27, H 2.47, W 1.59
T24: N 1.98, W 2.19, G 2.49, R 2.14, M 2.59, P 1.72, Y 2.36, A 1.82, I 1.92, E 2.09, K 2.29, C 2.26, S 2.19, F 1.99, H 2.06, Q 2.39, D 2.39, V 1.99, L 2.13
R15: L 3.03, Y 2.82, C 2.8, V 3.01, A 3.03, M 2.71, K 3.2, S 2.44, F 2.41, G 3.15, H 3.44, W 1.97, E 2.81, P 3, N 3.19, Q 3.55, D 4.3, T 2.67, I 2.76
E19: D 3.05, R 2.49, K 2.47, T 2.56, Q 2.87, H 2.46, L 2.35, G 2.12, S 2.94, N 2.95, Y 2.18, A 2.28, P 2.99, F 1.41, I 1.64, V 1.75, C 2.52, W 2.22, M 2.15
S12: R 1.4, M 2.37, Y 2.43, Q 2.16, V 1.45, W 1.77, P 1.68, N 1.93, T 1.96
